Measurements taken from the supplement of paper PMC10899765.

Columns and labels:
Conditions in all cases: 20 nM; 72 h
[1] = system: MCF10A; assay: one-nucleolus phenotype percent effect (relative to siNT 0% and siNOL11 100%); higher = more cells with one nucleolus (ribosome biogenesis inhibition)
Method: (§1)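 After 72 h, cells were fixed and stained with Hoechst and anti-fibrillarin, and nucleoli per nucleus were counted with CellProfiler. Values are plate-adjusted percent effect for the one-nucleolus and 5+ nucleoli phenotypes, normalised to siNT (0%) and to the positive controls siNOL11 or siKIF11 (100%), as the mean of biological triplicates. Percent viability is the nuclei count relative to siNT.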

[2] = system: MCF10A; assay: 5+ nucleoli phenotype percent effect (relative to siNT 0% and siKIF11 100%); higher = more cells with five or more nucleoli
Method: as §1

[3] = system: MCF10A; assay: percent viability (nuclei count relative to siNT); higher = more viable cells
Method: as §1

Row | Sequence | one-nucleolus phenotype percent effect [1] | 5+ nucleoli phenotype percent effect [2] | percent viability [3]
1 | UUGAAGGGACAAGUCAGAUAUGCC [hsa-miR-6864-5p] | 17.8% | -1.47% | 25.6%
2 | CUGACUGAAUAGGUAGGGUCAUU [hsa-miR-3136-5p] | 24.8% | -32.9% | 32.7%
3 | UGAGGACAGGGCAAAUUCACGA [hsa-miR-5004-5p] | 10% | -12.8% | 36%
4 | UGUAAACAUCCUACACUCUCAGC [hsa-miR-30c-5p] | 3.37% | 21.9% | 69.4%
5 | UACCCAGAGCAUGCAGUGUGAA [hsa-miR-1912] | 39.9% | -35.1% | 29.7%
6 | GAGCCAGUGGUGAGACAGUGA [hsa-miR-4676-5p] | -15.1% | -5.34% | 53.3%
7 | CACACACACACACACACGUAU [hsa-miR-8485] | 57.6% | -36.9% | 15.8%
8 | CUUCUCUUCUCUCCUUCCCAG [hsa-miR-6809-3p] | 17.9% | -23.7% | 31%
9 | UUCAAGUAAUUCAGGUG [hsa-miR-1297] | -17.3% | 45.2% | 121%
10 | AUCGUGCAUCCCUUUAGAGUGU [hsa-miR-517a-3p] | 3.74% | -11.8% | 46.8%
11 | CUGCAGCCACUUGGGGAACUGGU [hsa-miR-7156-3p] | 8.88% | -7.7% | 57.4%
12 | UAAAUUUCACCUUUCUGAGAAGA [hsa-miR-513c-3p] | 15.7% | -1.66% | 28.5%
13 | CAAAAACCAUAGUUACUUUUGC [hsa-miR-548bb-3p] | -26% | 40.6% | 103%
14 | ACAGGAGUGGGGGUGGGACAU [hsa-miR-4433-3p] | 6.34% | -0.614% | 38.2%
15 | UAGCAAGAGAACCAUUACCAUU [hsa-miR-451b] | -10.8% | 3.42% | 71.6%
16 | ACCAGGAGGCUGAGGCCCCU [hsa-miR-665] | 40.7% | -29.1% | 30.2%
17 | UGCUUAAGUUGUACCAAGUAU [hsa-miR-4720-3p] | 7.73% | -20.7% | 53.4%
18 | UGCCUGGGUCUCUGGCCUGCGCGU [hsa-miR-661] | 23.1% | -18.5% | 23%
19 | CAAUGUGAUCUUUUGGAUGUA [hsa-miR-8066] | 56.9% | -37.9% | 30.2%
20 | UAAAGACUGUAGAGGCAACUGGU [hsa-miR-7161-5p] | -23.4% | 33.8% | 79.8%

Row | Sequence | one-nucleolus phenotype percent effect [1] | 5+ nucleoli phenotype percent effect [2] | percent viability [3]
21 | AGGUGGAUGCAAUGUGACCUCA [hsa-miR-3165] | 1.14% | -22.9% | 3.1%
22 | GACUGGACAAGCUGAGGAA [hsa-miR-3654] | -25.9% | 68.1% | 99.2%
23 | AGCGUGGGAUGUCCAUGAAGUCAG [hsa-miR-6853-5p] | -26.6% | 90.6% | 71.7%
24 | CCUGCGAGUCUCCGGCGGUGG [hsa-miR-6068] | -17.2% | 24.3% | 97.4%
25 | UAAUGCCCCUAAAAAUCCUUAU [hsa-miR-365b-3p] | 5.41% | -12.3% | 37.9%
26 | UGCCUUCCUGUCUGUG [hsa-miR-4297] | 16.6% | -10.3% | 20.9%
27 | UCCCUGUCCUCCAGGAGCUCACG [hsa-miR-339-5p] | 0.467% | -0.871% | 51.6%
28 | CGGGGCCAGAGCAGAGAGC [hsa-miR-6845-5p] | 9.59% | 11.6% | 53.6%
29 | CCCAGUGUUUAGACUAUCUGUUC [hsa-miR-199b-5p] | -14.4% | 26.5% | 170%
30 | UCAAAAUCAGGAGUCGGGGCUU [hsa-miR-8063] | -23.1% | 18.2% | 81.3%
31 | UGCCUCCUUGGUCUCCGGCAG [hsa-miR-6791-3p] | -3.74% | -9.62% | 22.2%
32 | GGGAGUCUACAGCAGGG [hsa-miR-4294] | 24% | -26.3% | 37.7%
33 | GGCGCGCCCAGCUCCCGGGCU [hsa-miR-4783-5p] | -16.4% | 28% | 90.3%
34 | AAAACUGCAGUUACUUUUGC [hsa-miR-548av-3p] | -20.6% | 35.1% | 83.1%
35 | AAGCCCUUACCCCAAAAAGUAU [hsa-miR-129-1-3p] | 23.6% | -37.4% | 54.9%
36 | ACAGGCAGGAUUGGGGAA [hsa-miR-4514] | 32.3% | -12% | 18.4%
37 | AGUGGGAGGACAGGAGGCAGGU [hsa-miR-6778-5p] | -2.52% | -9.05% | 26.7%
38 | UUUGGCACUAGCACAUUUUUGCU [hsa-miR-96-5p] | 19.4% | 16.6% | 28.4%
39 | UUUGGUCCCCUUCAACCAGCUA [hsa-miR-133b] | 16.1% | -11.4% | 52.5%
40 | UCUGUGAUAGAGAUUCUUUGCU [hsa-miR-4679] | -10.8% | 8.51% | 103%

Row | Sequence | one-nucleolus phenotype percent effect [1] | 5+ nucleoli phenotype percent effect [2] | percent viability [3]
41 | UGAGGGACAGAUGCCAGAAGCA [hsa-miR-3126-5p] | 40% | -33.3% | 16.2%
42 | GGAUUCCUGGAAAUACUGUUCU [hsa-miR-145-3p] | 9.95% | -19.5% | 55.6%
43 | CACUGUAGGUGAUGGUGAGAGUGGGCA [hsa-miR-1183] | 0.199% | 17.5% | 66.4%
44 | ACAAAAAAAAAAGCCCAACCCUUC [hsa-miR-3613-3p] | -10.2% | 16.2% | 91.6%
45 | CCAGUCCUGUGCCUGCCGCCU [hsa-miR-1910] | 3.9% | 6.81% | 100%
46 | UCGUGUCCCUCUUGUCCACAG [hsa-miR-6774-3p] | -27% | 58.8% | 70%
47 | UAGGUGGCAGAGGAGGGACUUCA [hsa-miR-6865-5p] | 20.5% | -3.22% | 11.7%
48 | AACACACCUGGUUAACCUCUUU [hsa-miR-329] | -0.532% | 4.45% | 46.9%
49 | AGCUACAUCUGGCUACUGGGU [hsa-miR-222-3p] | -5.3% | -9.89% | 71.6%
50 | UGGAGUUAAGGGUUGCUUGGAGA [hsa-miR-4653-3p] | 47.6% | -39.9% | 12.9%
51 | GCAUUGUGCAGGGCUAUCA [hsa-miR-4289] | -8.06% | 7.06% | 35%
52 | UGAGGGUGUCAGCAGGUGACG [hsa-miR-6804-5p] | 19.5% | 0.774% | 11.7%
53 | UUAGUGCAUAGUCUUUGGUCU [hsa-miR-4671-3p] | -12% | 47.6% | 85.2%
54 | UGUAGUGUUUCCUACUUUAUGGA [hsa-miR-142-3p] | 23.4% | -20% | 82.8%
55 | GAGGCUGAGCUGAGGAG [hsa-miR-4478] | 35.1% | -17.6% | 22.9%
56 | CGUGUCUUCUGGCUUGAU [hsa-miR-4711-3p] | 59.2% | -36.9% | 17.8%
57 | UGAGGUAGUAGGUUGUGUGGUU [hsa-let-7b-5p] | -9.82% | 33.9% | 22.8%
58 | UUGCAGCUGCGGUUGUAAGGU [hsa-miR-5047] | 11.1% | -30.3% | 36.3%
59 | AAGAGAGGAGCAGUGGUGCUGUGG [hsa-miR-6856-5p] | 0.793% | -5.13% | 52.1%
